Laboratory results: PMC8836807 (Science Advances, 2022)

Molecular target: 6His-Nup60 aa27–539ΔHRΔFG-mGFP-StrepII (budding yeast (S. cerevisiae), UniProt P39705 27-539, ΔHR (aa48–162) | ΔFG (aa381–504))
Test: GUV co-recruitment assay

- binding result: binds
B1: 6His-SUMO-Nup2 aa83–136–TagmBFPII-StrepII (domain or fragment, budding yeast (S. cerevisiae), UniProt P32499 83-136, looked up)
chain: NSPTTESNSRLKALNLQFKAKVDDLVLGKPLADLRPLFTRYELYIKNILEAPVK
